Experimental findings from the supplement of paper PMC9170038 are described below.

For the series, the system named is MS2 coat protein. Put plainly: apparent KD of MS2 coat protein; designed switch direction (-1 OFF switch, 1 ON switch): 1; higher = weaker reporter binding. The method in brief:
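Each step of the titration lasted 0.8–1.5 h at the lowest concentration and 10–20 min at the highest. The protein, SNAP-549-labelled MS2 coat protein, went from 0.7 or 1.5 nM doubling to 3 µM over RNA switches transcribed on Illumina chips by stalled E. coli RNA polymerase. Normalised cluster fluorescence was curve-fitted, and the per-design median over clusters is given as apparent KD.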

Setting [1] is: input ligand: microRNA oligo, concentration not stated.
The mark [2] stands for this setting: Eterna round: R95, input ligand: FMN 200 uM.
Setting [3] is: Eterna round: R95, input ligand: microRNA oligo, concentration not stated.
[4] abbreviates: Eterna round: R95, input ligand: none.

With “AAAGGAUGAUGUUACAUGAGGAUCACCCAUGUAGUGAUAACUAAGGAUAUGUGUUAAACCAGUUAAUAGAAGGUAGGAUCAUUA [AK SSNG3-V2-6] (Eterna round: R96, puzzle: Same State NG 3)”, the “apparent KD of MS2 coat protein” value turned out to be 0.0438 µM (input ligand: FMN 200 uM), 0.0351 µM under setting [1] and 0.0494 µM (input ligand: none).

As to “AAAGUACAUGAGGAUCACCCAUGUCCAAAAAAGUAAGGAUAUGUGGUGCGACUACGAAACACAGAAGGUACAAAAA [Malcolm Mod] (puzzle: Same State 1)”, the “apparent KD of MS2 coat protein” value runs as follows: under setting [2], 0.0301 µM; under setting [3], 0.0133 µM; under setting [4], 0.0812 µM.

“AACAAAUACACAGGAUAUACAGCGGCAGCCACUGUAGAAGGGUGGGCGGGUUCCAACAUGAGGAUCACCCAUGUACCCAAUAAA [Gerace] (Eterna round: R96, puzzle: Same State NG 1)”: the “apparent KD of MS2 coat protein” value by setting is: (input ligand: FMN 200 uM) 0.161 µM; under setting [1], 0.234 µM; (input ligand: none) 0.699 µM.

For the sequence “AACAAGUUUUUGCUCGCUUAUAAGCAUGUACAUGAGGAUCACCCAUGUCAUGUACAAAGUCCAGCCUGAGCUGGACA [Reversing mir to lane 1] (puzzle: Sensor for hsa-mir-208a)”, the “apparent KD of MS2 coat protein” value turned out to be 0.0245 µM under setting [2], 0.0155 µM under setting [3] and 0.0254 µM under setting [4].

For the sequence “AACAAUCUAUCUGAGGAUAUCAUGAAAAAAACAUGAGGAUCACCCAUGUGCAGGAAAACUGCAUAUGAGAAGGCAGAUAGAUUGC [salish99_SS2_r3_004] (Eterna round: R96, puzzle: Same State 2)”, the “apparent KD of MS2 coat protein” value under setting [1] came to 0.504 µM.

Consider “AACAAUCUAUCUGAGGAUAUCAUGAAAAAAACAUGAGGAUCACCCAUGUGCAGGAAAACUGCAUAUGAGAAGGCAGAUAGAUUGC [salish99_SS2_r3_004] (puzzle: Same State 2)”, for which the “apparent KD of MS2 coat protein” value is 0.0325 µM under setting [2], 0.785 µM under setting [3] and 1.69 µM under setting [4].

On to “AACAAUCUAUCUGAGGAUAUCAUGAAAUAAACAUGAGGAUCACCCAUGUGCUGGAAAACUGCAUAUGAGAAGGCAGAUAGAUUGA [salish99_ss2_r3_037] (puzzle: Same State 2)”, for which the “apparent KD of MS2 coat protein” value is 0.0321 µM under setting [2], 0.237 µM under setting [3] and 0.395 µM under setting [4].

For the sequence “AACAAUCUUUCUGAGGAUAUCAUGAAAUAAACAUGAGGAUCACCCAUGUGCAGGAAAACUGCAUAUGAGAAGGCAGAUAGAUUGA [salish99_ss2_r3_024] (puzzle: Same State 2)”, the “apparent KD of MS2 coat protein” value runs as follows: under setting [2], 0.0433 µM; under setting [3], 0.414 µM; under setting [4], 1.22 µM.

“AACAAUUAACAUGAGGAUCACCCAUGUAUUACUUCGUGUUUUUGCUCGUCUUAUGUUAGGUUCGAUAGAGCUUAACA [Improved] (puzzle: Sensor for hsa-mir-208a version 2)”: the “apparent KD of MS2 coat protein” value is, setting by setting: under setting [2], 0.0424 µM; under setting [3], 0.0126 µM; under setting [4], 0.0449 µM.

With “AACAGACAUGAGGAUCACCCAUGUAGAAUUAUGGGAGGAUAUACAAAGACGAGAGUCAGAGUAGAAGGCCUAGGAC [salish99-ss1-163] (Eterna round: R96, puzzle: Same State 1)”, the “apparent KD of MS2 coat protein” value reads like this: (input ligand: FMN 200 uM) 0.0243 µM; under setting [1], 0.0422 µM; (input ligand: none) 0.0517 µM.

With “AACAGUCGGCGAGGAUAUGGACAUACGGACUAACCCGUAUGGCUCACAUGAGGAUCACCCAUGUUCUAGAAGGCGCCACUGAAA [Raridi] (Eterna round: R96, puzzle: Same State NG 2)”, the “apparent KD of MS2 coat protein” value (input ligand: FMN 200 uM) was determined as 0.0146 µM, the “apparent KD of MS2 coat protein” value under setting [1] turned out to be 0.0434 µM and the “apparent KD of MS2 coat protein” value (input ligand: none) was found to be 0.074 µM.

As for “AACAGUCGGCGAGGAUAUGGACGUACGGACUAACCCGUGCAGCUCACAUGAGGAUCACCCAUGUUCUAGAAGGCGCCACUGAAA [Onesusatza] (Eterna round: R96, puzzle: Same State NG 2)”, the “apparent KD of MS2 coat protein” value came to 0.0159 µM (input ligand: FMN 200 uM), 0.0876 µM under setting [1] and 0.147 µM (input ligand: none).

Regarding “AACAUGAGGAUCACCCAUGUCAGGCCGCCGGCCUACAUGAGGAAGGAUAUAGCCUCGAAAAUAGGCUAGAAGGUCCUCAUGAAU [Orises] (Eterna round: R96, puzzle: Same State NG 3)”, the “apparent KD of MS2 coat protein” value (input ligand: FMN 200 uM) was found to be 0.0786 µM, the “apparent KD of MS2 coat protein” value under setting [1] is 0.00635 µM and the “apparent KD of MS2 coat protein” value (input ligand: none) is 0.0232 µM.

Turning to “AACAUUCUAUCUCAGGAUAUCAUGUCAAAGACAUGAGGAUCACCCAUGUACCAGGAAACUGGUUAUGAGAAGGGAGAUAGAAUGG [Mat - Same State 2 - Mod - D48] (puzzle: Same State 2)”, the “apparent KD of MS2 coat protein” value by setting is: under setting [2], 0.182 µM; under setting [3], 0.195 µM; under setting [4], 0.624 µM.

Regarding “AACCAGGCCAGAGGAUAUGGGAAAGGAAGUGUACUAGAAGGCUGCAGCCUGAACAAACAUGAGGAUCACCCAUGUAAAACGGUG [PowerStrip SSNG 1.27] (Eterna round: R96, puzzle: Same State NG 1)”, the “apparent KD of MS2 coat protein” value runs as follows: (input ligand: FMN 200 uM) 0.296 µM; under setting [1], 0.15 µM; (input ligand: none) 0.304 µM.

As for “AACCUACAUGAGGAUCACCCAUGUAUCUGAGGCACAGGAUAUCGACAGGCAAGACACCUGCGAGAAGGGUGACCUC [Same State 1 - Mod of Vinnie Diatater v.2] (puzzle: Same State 1)”, the “apparent KD of MS2 coat protein” value under setting [3] came out at 0.0536 µM.

Take “AACGUUGGCGAGCAGGAUAUCCGCUCAUUAACAUGAGGAUCACCCAUGUUCUGCAAGAUGUGCUAGGAGAAGGGCUGGUCGACAU [Edatar] (puzzle: Same State 2)”: the “apparent KD of MS2 coat protein” value under setting [2] came to 0.0149 µM, the “apparent KD of MS2 coat protein” value under setting [3] turned out to be 0.0182 µM and the “apparent KD of MS2 coat protein” value under setting [4] was 0.0348 µM.

Consider “AACUAACAUGAGGAUCACCCAUGUUGCAGCGGUUGAGGAUAUGUGGGUGAAAAUAGCAUGGCAGAAGGCGAGUGUA [SameState1 Malc#25] (Eterna round: R96, puzzle: Same State 1)”, for which the “apparent KD of MS2 coat protein” value by setting is: (input ligand: FMN 200 uM) 0.407 µM; under setting [1], 0.0959 µM; (input ligand: none) 0.208 µM.

Take “AAGAAAGACGCAGGAUAUCAGCGCAAAACACGCUGAGAAGGGUGAGACAUGAGGAUCACCCAUGUAACACGGCAAAACGCCGUG [Atinanor] (Eterna round: R96, puzzle: Same State NG 1)”: the “apparent KD of MS2 coat protein” value by setting is: (input ligand: FMN 200 uM) 2.19 µM; under setting [1], 0.121 µM; (input ligand: none) 1.31 µM.

“AAGAAAGACGCAGGAUAUCAGCGCAAACCGCACUGAGAAGGGUGAGACAUGAGGAUCACCCAUGUAACACGGCAAAACGCCGUG [Lausgeledi] (Eterna round: R96, puzzle: Same State NG 1)”: the “apparent KD of MS2 coat protein” value by setting is: (input ligand: FMN 200 uM) 1.53 µM; under setting [1], 0.268 µM; (input ligand: none) 0.219 µM.

As to “AAGAAAUCCGCAGGAUAUCCUAAGCCGGACUUAGGAGAAGGGUGGCCACAUGAGGAUCACCCAUGUAAAAGCUGAAUCACAGCC [Vetianeste] (Eterna round: R96, puzzle: Same State NG 1)”, the “apparent KD of MS2 coat protein” value came out at 0.554 µM (input ligand: FMN 200 uM), 0.385 µM under setting [1] and 0.497 µM (input ligand: none).

As to “AAGAAGACGAACAAGGAUAUGUCAAAGGAAACAUGAGGAUCACCCAUGUAGAGAUUGGAAAAGAAACAGAAGGUGUACAGAAAGA [JR_SS2_Sub005] (puzzle: Same State 2)”, the “apparent KD of MS2 coat protein” value runs as follows: under setting [2], 0.0248 µM; under setting [3], 0.0333 µM; under setting [4], 0.0352 µM.

As to “AAGAGACAUGAGGAUCACCCAUGUUUGAAUAAUAUAGGAUAUAUACCACAUGUAAAAGAAAUAGAAGGAUAAGAAA [Default title] (puzzle: Same State 1)”, the “apparent KD of MS2 coat protein” value is 0.077 µM under setting [2], 0.114 µM under setting [3] and 0.534 µM under setting [4].

With “AAGAUACAUGAGGAUCACCCAUGUCGAGAGAGACGAGGAUAUCUGAAUCGAUUAGAUUACGGAGAAGGCGUGAAAA [LROPPY Same State 1 - v07_deltaG=1.9] (Eterna round: R96, puzzle: Same State 1)”, the “apparent KD of MS2 coat protein” value was found to be 0.0196 µM (input ligand: FMN 200 uM), 0.0222 µM under setting [1] and 0.0297 µM (input ligand: none).

As to “AAGCUCGUGUGAGGAUAUGCCGCCGUUUCGGCUGCAGAAGGUGCUACGUUACAUGAGGAUCACCCAUGUCUCUGUUGUUUCGUC [salish99_SSNG1_r04_954] (Eterna round: R96, puzzle: Same State NG 1)”, the “apparent KD of MS2 coat protein” value under setting [1] turned out to be 0.0221 µM.

Take “AAGGGCGGAAACAACAUGAGGAUCACCCAUGUUGCCGAAAGGCAGGAUAUCCGGCGAAAGCAGAAGGAGAAGGGUCAAGAACCA [AK SSNG3-V2-42.1] (Eterna round: R96, puzzle: Same State NG 3)”: the “apparent KD of MS2 coat protein” value runs as follows: (input ligand: FMN 200 uM) 0.039 µM; under setting [1], 0.016 µM; (input ligand: none) 0.0225 µM.

“AAGUUACUAUCUCAGGAUAUCAUGUCAAAGACAUGAGGAUCACCCAUGUACCAGGAAACUGGUUAUGAGAAGGGAGAUAGUAACG [Mat - Same State 2 - Mod - D53] (puzzle: Same State 2)”: the “apparent KD of MS2 coat protein” value is, setting by setting: under setting [2], 0.497 µM; under setting [3], 0.149 µM; under setting [4], 0.443 µM.

As for “AAUAAACAUGAGGAUCACCCAUGUAAUAUAAAUGGAGGAUAUGCAAUUAUUAAUUAUUAAGUAGAAGGUCGAAUAA [Lollin - Epsilon 1] (Eterna round: R96, puzzle: Same State 1)”, the “apparent KD of MS2 coat protein” value under setting [1] came out at 0.0675 µM.

Consider “AAUAAACAUGAGGAUCACCCAUGUAAUAUAAAUGGAGGAUAUGCAAUUAUUAAUUAUUAAGUAGAAGGUCGAAUAA [Lollin - Epsilon 1] (puzzle: Same State 1)”, for which the “apparent KD of MS2 coat protein” value by setting is: under setting [2], 0.0621 µM; under setting [3], 0.0557 µM; under setting [4], 0.0912 µM.
